Laboratory results as given in PMC6141012 (Nature, 2018).

T1: Prp39 (S. cerevisiae, UniProt P39682 1-629)
T1 sequence: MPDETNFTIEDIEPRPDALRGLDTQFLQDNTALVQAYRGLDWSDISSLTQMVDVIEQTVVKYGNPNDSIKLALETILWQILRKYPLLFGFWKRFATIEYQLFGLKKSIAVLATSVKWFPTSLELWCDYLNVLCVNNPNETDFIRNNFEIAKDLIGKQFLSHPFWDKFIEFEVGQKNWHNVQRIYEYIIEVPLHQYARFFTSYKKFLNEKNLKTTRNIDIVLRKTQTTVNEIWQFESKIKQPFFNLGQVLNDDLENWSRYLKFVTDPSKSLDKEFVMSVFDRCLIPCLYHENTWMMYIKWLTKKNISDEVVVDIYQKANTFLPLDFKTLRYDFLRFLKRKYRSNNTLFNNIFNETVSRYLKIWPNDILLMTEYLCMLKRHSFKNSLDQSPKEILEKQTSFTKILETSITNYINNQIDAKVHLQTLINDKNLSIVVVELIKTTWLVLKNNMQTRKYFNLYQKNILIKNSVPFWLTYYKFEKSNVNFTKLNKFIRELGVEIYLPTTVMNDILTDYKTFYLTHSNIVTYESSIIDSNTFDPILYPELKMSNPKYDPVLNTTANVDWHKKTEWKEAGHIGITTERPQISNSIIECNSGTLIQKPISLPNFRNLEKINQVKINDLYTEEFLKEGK

T2: Snu71 (S. cerevisiae, UniProt P53207 1-620)
T2 sequence (looked up): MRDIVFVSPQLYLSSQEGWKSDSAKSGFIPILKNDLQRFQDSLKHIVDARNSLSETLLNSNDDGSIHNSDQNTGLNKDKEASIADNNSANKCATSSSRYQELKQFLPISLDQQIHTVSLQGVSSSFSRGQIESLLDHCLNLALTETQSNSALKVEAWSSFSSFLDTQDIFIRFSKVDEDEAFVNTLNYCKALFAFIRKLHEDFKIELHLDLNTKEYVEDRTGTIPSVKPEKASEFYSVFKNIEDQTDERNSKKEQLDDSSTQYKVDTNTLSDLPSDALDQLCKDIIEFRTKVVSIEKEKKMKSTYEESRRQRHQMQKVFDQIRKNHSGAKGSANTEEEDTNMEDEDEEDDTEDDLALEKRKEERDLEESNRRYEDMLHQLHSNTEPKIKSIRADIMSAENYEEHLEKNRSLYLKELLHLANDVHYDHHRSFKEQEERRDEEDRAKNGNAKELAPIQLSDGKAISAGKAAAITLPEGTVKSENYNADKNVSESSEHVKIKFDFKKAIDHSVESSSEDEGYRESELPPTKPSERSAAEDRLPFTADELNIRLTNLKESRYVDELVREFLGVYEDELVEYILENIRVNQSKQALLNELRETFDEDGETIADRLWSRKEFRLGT

B1: Prp42 (natural protein)
chain: MDKYTALIHDENFSTLTLNVSRYPKSLAYWEKLLNYIVKASAPICKSTEPQLLKLIRCTYSSMLNEFPYLENYYIDFALLEYKLGNVSMSHKIFQRGLQAFNQRSLLLWTSYLKFCNNVISHQKQLFKKYETAEEYVGLHFFSGEFWDLYLEQISSRCTSSKKYWNVLRKILEIPLHSFSKFYALWLQRIDDIMDLKQLSQLTSKDELLKKLKIDINYSGRKGPYLQDAKKKLKKITKEMYMVVQYQVLEIYSIFESKIYINYYTSPETLVSSDEIETWIKYLDYTITLQTDSLTHLNFQRALLPLAHYDLVWIKYSKWLINSKNDLLGAKNVLLMGLKFSLKKTEIIKLLYSVICKLNEYVLLRNLLEKIESSYSDNVENVDDFEIFWDYLQFKTFCQNSLYSSRYSDSQSNGLLNKELFDKVWKRLSCKEKKSGQEILLNNLVQFYSKDTVEFVEKNIFQKIIEFGWEYYLQNGMFWNCYCRLIYFDTSRSYLDKRQYIVRKIWPQIDKKFAQSVLPSLTEFCESYFPEEMDTLEEMFTEEP
B2: Nam8 (natural protein, S. cerevisiae, UniProt Q00539 1-523, looked up)
chain: MSYKQTTYYPSRGNLVRNDSSPYTNTISSETNNSSTSVLSLQGASNVSLGTTGNQLYMGDLDPTWDKNTVRQIWASLGEANINVRMMWNNTLNNGSRSSMGPKNNQGYCFVDFPSSTHAANALLKNGMLIPNFPNKKLKLNWATSSYSNSNNSLNNVKSGNNCSIFVGDLAPNVTESQLFELFINRYASTSHAKIVHDQVTGMSKGYGFVKFTNSDEQQLALSEMQGVFLNGRAIKVGPTSGQQQHVSGNNDYNRSSSSLNNENVDSRFLSKGQSFLSNGNNNMGFKRNHMSQFIYPVQQQPSLNHFTDPNNTTVFIGGLSSLVTEDELRAYFQPFGTIVYVKIPVGKCCGFVQYVDRLSAEAAIAGMQGFPIANSRVRLSWGRSAKQTALLQQAMLSNSLQVQQQQPGLQQPNYGYIPSSTCEAPVLPDNNVSSTMLPGCQILNYSNPYANANGLGSNNFSFYSNNNATNTQATSLLADTSSMDLSGTGGQQVIMQGSEAVVNSTNAMLNRLEQGSNGFMFA

Assays:
Assay in all cases: cryo-EM structure
Nam8 = molecular target: B2
Prp42 = molecular target: B1
Prp39 = molecular target: T1, Prp39
Snu71 = molecular target: T2, Snu71

binding result (Nam8)	binding result (Prp42)	binding result (Prp39)	binding result (Snu71)	Binder
binds	binds	binds	–	Yhc1 (natural protein, S. cerevisiae, UniProt Q05900 1-231, looked up) MTRYYCEYCHSYLTHDTLSVRKSHLVGKNHLRITADYYRNKARDIINKHNHKRRHIGKRGRKERENSSQNETLKVTCLSNKEKRHIMHVKKMNQKELAQTSIDTLKLLYDGSPGYSKVFVDANRFDIGDLVKASKLPQRANEKSAHHSFKQTSRSRDETCESNPFPRLNNPKKLEPPKILSQWSNTIPKTSIFYSVDILQTTIKESKKRMHSDGIRKPSSANGYKRRRYGN
–	–	binds	binds	B1
–	binds	binds	–	B2
–	–	binds	–	Lea1 (natural protein, S. cerevisiae, UniProt Q08963 1-238, looked up) MKFTPSIVIDAPQYYVDHFNGKYNVDKCVILRDLQLETDSESMPSSLKHLTKPTHILDLTNNDLIMIPDLSRRDDIHTLLLGRNNIVEVDGRLLPMNVQNLTLSNNSIRRFEDLQRLRRAPRTLKNLTLIGNQVCHLANYREHVLRLVPHLETLDFQNVTAEERKSAMSFPRQADGDTLGPVNTAIRDNGSRDKTMEIMNLVVSKMTVERRNELKKQLAEATSLEEIARLEKLLSGGV
–	–	–	binds	Snu56 (natural protein, S. cerevisiae, UniProt Q03782 1-492, looked up) MRPRRRGLAYHHTKPKGQLSQGHYPTTSNDGQRRKVGNSEAFQSFDIWKNLDRIRSTKKNAGQFIKGSLLILPMRTEDKQQFDECMDELHKYISKDILRCYPQKEQKDEGMLFYIVLKDFNILDSCFVLSVLLAFQKRLWMAPSEKSYFRVPKNINLTGSFYLPKNIETGRGHIITSYRREQPSSSIVEVGFNVVPDFQQFQVKACHVSKFMNELSNFFSQVEFGKCEANVINYFKREYNRTYSQISLALYELPLIGDGLFDIKSYISKTRPIIETSKAQMIKHISEMKAYNEISGLQGDQFPRQQRPLSNSPSSNSISSSQTIEAGATSYQTQPQRHAVNKPSNVLNSSNRHSGPKTFEDGRYSEGNKPGFMTQDEIKQHCIGTIKASMDAVKKKSSYQILKTYVRCPRQNYIDIVYQNLNDLRSKTNCNIVVLNLNNLHESQMWLESLNTTNYTIFAQAPHPSTIRVISIGGVGEYIVKALELILNILEH
